This is an account of results in PMC3553015 (2013).

First the molecules themselves.
B1: biotin-labeled AP2µ [modified: biotin (incorporated with Transcend Biotinylated tRNA during translation); biotin (incorporated with Transcend Biotinylated tRNA during translation)] [murine] / GST-21-mer of CD79a centered on Y193 [murine] (parent complex)
chain 1: MIGGLFIYNHKGEVLISRVYRDDIGRNAVDAFRVNVIHARQQVRSPVTNIARTSFFHVKRSNIWLAAVTKQNVNAAMVFEFLYKMCDVMAAYFGKISEENIKNNFVLIYELLDEILDFGYPQNSETGALKTFITQQGIKSQHQTKEEQSQITSQVTGQIGWRREGIKYRRNELFLDVLESVNLLMSPQGQVLSAHVSGRVVMKSYLSGMPECKFGMNDKIVIEKQGKGTADETSKSGKQSIAIDDCTFHQCVRLSKFDSERSISFIPPDGEFELMRYRTTKDIILPFRVIPLVREVGRTKLEVKVVIKSNFKPSLLAQKIEVRIPTPLNTSGVQVICMKGKAKYKASENAIVWKIKRMAGMKESQISAEIELLPTNDKKKWARPPISMNFEVPFAPSGLKVRYLKVFEPKLNYSDHDVIKWVRYIGRSGIYETRC
chain 2: EGLNLDDCSMYEDISRGLQGT
B2: biotin-labeled AP2µ [modified: biotin (incorporated with Transcend Biotinylated tRNA during translation); biotin (incorporated with Transcend Biotinylated tRNA during translation)] [murine] / GST-CD79a cytoplasmic domain [murine] (parent complex)
chain 1: B1 chain 1
chain 2: RKRWQNEKFGVDMPDDYEDENLYEGLNLDDCSMYEDISRGLQGTYQDVGNLHIGDAQLEKP
B3: biotin-labeled AP2µ [modified: biotin (incorporated with Transcend Biotinylated tRNA during translation); biotin (incorporated with Transcend Biotinylated tRNA during translation)] [murine] / GST-21-mer of CD79a centered on the membrane … (parent complex)
chain 1: B1 chain 1
chain 2: MPDDYEDENLYEGLNLDDCSM

Variants of B1 are the subject of one assay. The assay can be described thus: in vitro binding of AP2µ-btn to bead-captured GST-21-mer; parent: 65; read off a plot.
Consider chain 2 EGLNLDDCSMAEDISRGLQGT [chain 2 Y11A], for which the screen value is ~50 % of full-length CD79a.

Take chain 2 EGLNLDDCSMEEDISRGLQGT [chain 2 Y11E]: the screen value is ~53 % of full-length CD79a.

Variants of B2 are the subject of the next assay. The assay can be described thus: in vitro binding of AP2µ-btn to bead-captured GST fusion protein; parent: 100; read off a plot.
chain 2 RKRWQNEKFGVDMPDDYEDENLYEGLNLDDCSMAEDISRGLQGTAQDVGNLHIGDAQLEKP [chain 2 Y34A, chain 2 Y45A]: the percent of parent is ~104 % of CD79a.

With chain 2 RKRWQNEKFGVDMPDDYEDENLAEGLNLDDCSMAEDISRGLQGTAQDVGNLHIGDAQLEKP [chain 2 Y23A, chain 2 Y34A, chain 2 Y45A], the percent of parent was ~53 % of CD79a.

As for chain 2 RKRWQNEKFGVDMPDDYEDENLEEGLNLDDCSMYEDISRGLQGTEQDVGNLHIGDAQLEKP [chain 2 Y23E, chain 2 Y45E], the percent of parent is ~41 % of CD79a.

chain 2 RKRWQNEKFGVDMPDDYEDENLEEGLNLDDCSMEEDISRGLQGTEQDVGNLHIGDAQLEKP [chain 2 Y23E, chain 2 Y34E, chain 2 Y45E]: the percent of parent was ~24 % of CD79a.

Regarding chain 2 RKRWQNEKFGVDMPDDYEDENLEEGLNLDDCSMEEDISRGLQGTYQDVGNLHIGDAQLEKP [chain 2 Y23E, chain 2 Y34E], the percent of parent was ~58 % of CD79a.

chain 2 RKRWQNEKFGVDMPDDYEDENLAEGLNLDDCSMYEDISRGLQGTAQDVGNLHIGDAQLEKP [chain 2 Y23A, chain 2 Y45A]: the percent of parent is ~50 % of CD79a.

For chain 2 RKRWQNEKFGVDMPDDYEDENLAEGLNLDDCSMYEDISRGLQGTYQDVGNLHIGDAQLEKP [chain 2 Y23A], the percent of parent is ~77 % of CD79a.

Consider chain 2 RKRWQNEKFGVDMPDDYEDENLEEGLNLDDCSMYEDISRGLQGTYQDVGNLHIGDAQLEKP [chain 2 Y23E], for which the percent of parent was ~49 % of CD79a.

With chain 2 RKRWQNEKFGVDMPDDYEDENLYEGLNLDDCSMYEDISRGLQGTEQDVGNLHIGDAQLEKP [chain 2 Y45E], the percent of parent is ~102 % of CD79a.

Consider chain 2 RKRWQNEKFGVDMPDDYEDENLYEGLNLDDCSMYEDISRGLQGTAQDVGNLHIGDAQLEKP [chain 2 Y45A], for which the percent of parent was ~105 % of CD79a.

In the case of chain 2 RKRWQNEKFGVDMPDDYEDENLYEGLNLDDCSMEEDISRGLQGTYQDVGNLHIGDAQLEKP [chain 2 Y34E], the percent of parent is ~100 % of CD79a.

In the case of chain 2 RKRWQNEKFGVDMPDDYEDENLYEGLNLDDCSMAEDISRGLQGTYQDVGNLHIGDAQLEKP [chain 2 Y34A], the percent of parent is ~99 % of CD79a.

As for chain 2 RKRWQNEKFGVDMPDDYEDENLYEGLNLDDCSMEEDISRGLQGTEQDVGNLHIGDAQLEKP [chain 2 Y34E, chain 2 Y45E], the percent of parent is ~83 % of CD79a.

Consider chain 2 RKRWQNEKFGVDMPDDYEDENLAEGLNLDDCSMAEDISRGLQGTYQDVGNLHIGDAQLEKP [chain 2 Y23A, chain 2 Y34A], for which the percent of parent was ~78 % of CD79a.

Another assay covers variants of B3. The assay can be described thus: in vitro binding of AP2µ-btn to bead-captured GST-21-mer; parent: 81; read off a plot.
Regarding chain 2 MPDDYEDENLAEGLNLDDCSM [chain 2 Y11A], the screen value was ~41 % of full-length CD79a.

On to chain 2 MPDDYEDENLEEGLNLDDCSM [chain 2 Y11E], for which the screen value was ~42 % of full-length CD79a.
